Data from patent US12383572B2, “Administration of an anti-activin-a compound to a subject” (AMGEN INC., priority 2013, dated 2025).

Assays:
VEGF and Ang-1 = VEGF and Ang-1 immunostaining of inh-KO ovarian and testicular tumor sections; type: in vivo, mouse; details: ovarian and testicular tumors, inh-KO mice
Description: Zinc-formalin fixed paraffin tumor tissue sections of 4 μm in thickness were prepared. The sections were subjected to antigen retrieval by microwave 3 min in Unmask solution (Vector H-3300) followed by incubation in 10 μg/ml Proteinase-K for 20 min and in 1% H2O2 in dH2O for 10 min at room temperature. The sections were further incubated in 0.1% Tween-20 in PBS for 3 min to permeabilize the cell membrane and in goat serum for 30 min to block non-specific binding. The sections were then incubated at room temperature with specific primary antibody for 3 hours followed by incubation in biotinylated or fluorescently labeled secondary antibody. Substrate developed in Vector SG kit (SK-4700) or DAB and nuclear-counterstained in Vector Fast Red (H-3403) or in hematoxylin. The immunostained tissue sections were analyzed and photographed using a Nikon Eclipse 90i microscope equipped with DS-Ril camera. The primary antibodies used and their dilutions are as follows: VEGF (BD Pharmingen 550549) 1:20 or VEGF (Abcam ab46154) 1:100, active caspase-3 (Abcam ab32042) 1:50, Ang-1 (Abcam ab8451) 1:500, osteopontin (Abcam ab8448) 1:200, CD-31 (Abcam ab56299) 1:100, E-cadherin (Abcam ab76319) 1:80. For immunofluorescence staining, FITC-conjugated secondary antibody (Invitrogen) was added at 1:50 dilution in PBS and incubated for 30 min. Cell nuclei were counterstained with Vectashield PE (Vector).

activin-A = molecular target: T1, activin-A (Mus musculus, UniProt Q04998); experiment: Serum activin-A ELISA in inh-KO mice with established gonadal tumors; type: in vivo; details: single injection 30 mg/kg SC
T1 construct: from tissue; host or cells: serum of inhibin-α knockout (inh-KO) and wild-type mice
T1 sequence (Q04998 309-424): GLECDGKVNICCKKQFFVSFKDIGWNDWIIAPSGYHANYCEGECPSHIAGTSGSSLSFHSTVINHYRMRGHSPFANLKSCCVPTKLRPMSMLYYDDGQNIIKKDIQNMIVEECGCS
Description: Inh-KO mice. 12-week-old female and 8-week-old male inh-KO mice with fully established ovarian or testicular tumors received a single injection of PBS or sActRIIB (30 mg/kg, SC). As a control, age-matched wild-type littermates received a single injection of PBS. Ovarian and testicular organ weights were determined by necropsy 14 days after the injection. All serum samples from ovarian cancer patients and healthy subjects were collected under informed consent and were purchased from Bioreclamation, Inc. The serum samples were diluted in buffer (DY995, R & D Systems) and pretreated overnight at 4° C. with 4 M urea (Sigma) to dissociate any protein bound to activin-A. The samples were then transferred to 96 well plates pre-coated with an activin-A monoclonal antibody. After 2 hr incubation at room temperature and a washing step (0.05% Tween 20 in DPBS), a biotin-labeled activin-A monoclonal antibody was added for 1 hr at room temperature. […] An acidic stopping solution (KPL) was added and the degree of enzymatic turnover of the substrate was determined by wavelength absorbance measurement at 450 nm. The absorbance measured is directly proportional to the concentration of activin-A present. A standard curve of absorbance versus activin-A concentration was used to determine the amount of Activin-A in the test sample. Serum activin-A levels in inh-KO mice were measured by using ELISA.

E-cadherin = E-cadherin Western blot and immunostaining in inh-KO ovarian tumors; type: in vivo, mouse; details: inh-KO mice
Description: Protein extracts were prepared from cell cultures or tissues in T-PER tissue protein extraction reagent (Pierce) containing a mixture of protease inhibitors (Roche). A pool of 50 μg total protein for each group containing equal amounts of protein extract isolated from individual animals was separated by NuPAGE 4-12% Bis-Tris gel (Invitrogen) and transferred to PVDF. The membranes were probed with primary antibodies against total Smad2, p-Smad2 or E-cadherin (1:1000; Cell Signaling), endoglin, osteopontin (1:500; R & D Systems), IGFBP-1, IGFBP-2 (1:500; Abcam) followed by HRP-conjugated secondary antibody (1:2000; Cell Signaling). The membranes were stripped and re-probed with antibody against α-tubulin (1:1000; Cell Signaling).
Zinc-formalin fixed paraffin tumor tissue sections of 4 μm in thickness were prepared. The sections were subjected to antigen retrieval by microwave 3 min in Unmask solution (Vector H-3300) followed by incubation in 10 μg/ml Proteinase-K for 20 min and in 1% H2O2 in dH2O for 10 min at room temperature. The sections were further incubated in 0.1% Tween-20 in PBS for 3 min to permeabilize the cell membrane and in goat serum for 30 min to block non-specific binding. […] The immunostained tissue sections were analyzed and photographed using a Nikon Eclipse 90i microscope equipped with DS-Ril camera. […]

B1: sActRIIB: extracellular domain of human activin type-2B receptor fused to IgG2 Fc; full length SEQ ID NO: 21 (Table 9) (protein, listed as Homo sapiens)
chain: ETRWCIYYNANWELERTNQSGLERCEGEQDKRLHCYASWRNSSGTIELVKKGCWLDDFNCYDRQECVATEENPQVYFCCCEGNFCNERFTHLPEAGGPEVTYEPPPTAPTGGGGSVECPPCPAPPVAGPSVFLFPPKPKDTLMISRTPEVTCVVVDVSHEDPEVQFNWYVDGVEVHNAKTKPREEQFNSTFRVVSVLTVVHQDWLNGKEYKCKVSNKGLPAPIEKTISKTKGQPREPQVYTLPPSREEMTKNQVSLTCLVKGFYPSDIAVEWESNGQPENNYKTTPPMLDSDGSFFLYSKLTVDKSRWQQGNVFSCSVMHEALHNHYTQKSLSLSPGK
VEGF and Ang-1
  VEGF and Ang-1 immunoreactivities in tumor sections: completely abolished the VEGF and Ang-1 inductions in the tumors
activin-A
  duration of activin-A-neutralizing effect: persisted throughout the 14-day study period
activin-A; within one day after administration
  serum activin-A levels: reduced the elevated activin-A in the inh-KO mice to normal control levels
E-cadherin
  E-cadherin immunoreactivity in ovarian sections: reappearance of distinctive E-cadherin immunoreactivity
E-cadherin; single injection
  E-cadherin protein in ovarian tumors (Western blot): dramatically restored the lost E-cadherin
